Assay results taken from article PMC7387707, “An (R)-Selective Transaminase From Thermomyces stellatus: Stabilizing the Tetrameric Form” (Frontiers in Bioengineering and Biotechnology, 2020).

Assays:
TsRTA [1] = biological target: T1, TsRTA (Microascus stellatus, UniProt Z9EHZ8S8K6); assay: X-ray structure, […] Å; format: binding; conditions: covalent (imine with K178); active site
T1 construct: codon-optimised synthetic gene in pCH93b (pET22b(+)-derived, TEV site added), E. coli BL21 STAR (DE3), Ni-IMAC, C-terminal His-tag; structure residues 1-319 seen, 320-334 plus tag disordered
T1 sequence (Z9EHZ8S8K6 10-343): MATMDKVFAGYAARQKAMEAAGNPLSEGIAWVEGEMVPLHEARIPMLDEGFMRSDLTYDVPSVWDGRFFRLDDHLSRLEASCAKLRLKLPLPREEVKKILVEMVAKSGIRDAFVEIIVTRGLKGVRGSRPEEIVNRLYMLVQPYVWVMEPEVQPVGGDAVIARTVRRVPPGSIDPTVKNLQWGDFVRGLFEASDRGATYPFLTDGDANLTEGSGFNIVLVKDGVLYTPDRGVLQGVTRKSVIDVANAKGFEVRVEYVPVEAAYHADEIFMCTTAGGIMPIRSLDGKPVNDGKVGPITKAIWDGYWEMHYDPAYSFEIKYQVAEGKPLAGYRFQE

AtRTA = biological target: T2, AtRTA (Aspergillus terreus, UniProt Q0C8G1); assay: acetophenone formation, plate reader; substrate-inhibition fit; format: biochemical; conditions: 30 °C, pH 8
T2 construct: gene ATEG_10023; synthetic gene (Johnson Matthey) in pCH93b (pET22b(+)-derived, TEV site added), E. coli BL21 STAR (DE3), Ni-IMAC
Description: (§1) acetophenone formation, plate reader; substrate-inhibition fit on AtRTA

TsRTA [2] = biological target: T1, TsRTA; assay: as above; format: biochemical; conditions: 30 °C, pH 8
Description: (§2) acetophenone formation, plate reader; substrate-inhibition fit on TsRTA

TsRTA [3] = biological target: T3, TsRTA (Microascus stellatus, UniProt Z9EHZ8S8K6, G205C); assay: as above; format: biochemical; conditions: 10 mM pyruvate, 1% DMSO, 30 °C, pH 8
T3 construct: codon-optimised synthetic gene in pCH93b (pET22b(+)-derived, TEV site added), E. coli BL21 STAR (DE3), Ni-IMAC, C-terminal His-tag; structure residues 1-319 seen, 320-334 plus tag disordered
T3 sequence (Z9EHZ8S8K6 10-343 G205C): T1 sequence (Z9EHZ8S8K6 10-343)
Description: as §2

[4] = biological target: (R)-selective transaminase from Thermomyces stellatus (TsRTA), wild type (Thermomyces stellatus); assay: SEC; Superdex 200 10/300 GL; 50 mM potassium phosphate, 100 mM NaCl, 0.1 mM PLP, pH 8; ca 2 mg/mL protein; injected directly after preparation or after incubation (ambient temperature; or 10 mM β-mercaptoethanol at 4°C for 2 days, dialysis, overnight aeration); shares of tetramer, dimer and monomer; 0-1,200 mM NaCl had no effect on the tetramer
C[C@@H](N)c1ccccc1 [5] = assay: acetophenone formation, plate reader; substrate-inhibition fit; format: biochemical, Aspergillus terreus; conditions: 10 mM pyruvate, 1% DMSO, 30 °C, pH 8
Description: as §1

CC(=O)C(=O)O [6] = assay: as above; format: biochemical, Aspergillus terreus; conditions: 2.5 mM RMBA, 0.25% DMSO, 30 °C, pH 8
Description: as §1

Q0C8G1 = conditions: SEC
[7] = biological target: AtRTA_G207C (Aspergillus terreus) (UniProt Q0C8G1); assay: SEC
[8] = biological target: AtRTA_G207C (Aspergillus terreus) (UniProt Q0C8G1)
C[C@@H](N)c1ccccc1 [9] = assay: acetophenone formation, plate reader; substrate-inhibition fit; format: biochemical, Microascus stellatus; conditions: 10 mM pyruvate, 1% DMSO, 30 °C, pH 8
Description: as §2

CC(=O)C(=O)O [10] = assay: as above; format: biochemical, Microascus stellatus; conditions: 2.5 mM RMBA, 0.25% DMSO, 30 °C, pH 8
Description: as §2

C[C@@H](N)c1ccccc1 [11] = assay: purified protein; conditions: 10 mM pyruvate, 1% DMSO, 30 °C, pH 8
CC(=O)C(=O)O [12] = assay: purified protein; conditions: 2.5 mM RMBA, 0.25% DMSO, 30 °C, pH 8
[13] = SEC; Superdex 200 10/300 GL; 50 mM potassium phosphate, 100 mM NaCl, 0.1 mM PLP, pH 8; ca 2 mg/mL protein; injected directly after preparation or after incubation (ambient temperature; or 10 mM β-mercaptoethanol at 4°C for 2 days, dialysis, overnight aeration); shares of tetramer, dimer and …
[14] = biological target: TsRTA_G205C (Thermomyces stellatus); assay: SEC; Superdex 200 10/300 GL; 50 mM potassium phosphate, 100 mM NaCl, 0.1 mM PLP, pH 8; ca 2 mg/mL protein; injected directly after preparation or after incubation (ambient temperature; or 10 mM β-mercaptoethanol at 4°C for 2 days, dialysis, overnight aeration); shares of tetramer, dimer and monomer; 0-1,200 mM NaCl had no effect on the tetramer
[15] = biological target: the molecule itself; assay: as above

**Q.** Which “X-ray structure, 2.2 Å” value (TsRTA [1]) does the source give for `Cc1ncc(COP(=O)(O)O)c(C=O)c1O` [PLP] here?
**A.** The active site pocket houses a single PLP molecule, covalently bound to each TsRTA chain

**Q.** For `CC(=O)C(=O)O` [Pyruvate], which “Ki” value (AtRTA; 2.5 mM RMBA, 0.25% DMSO) is on record?
**A.** 52 ± 4 mM

**Q.** And the “Ki” value (TsRTA [2]; 2.5 mM RMBA, 0.25% DMSO)?
**A.** 39 ± 5 mM

**Q.** For `C[C@@H](N)c1ccccc1` [RMBA], which “Ki” value (AtRTA; 10 mM pyruvate, 1% DMSO) is on record?
**A.** 19 ± 1 mM

**Q.** What about the “Ki” value (TsRTA [2]; 10 mM pyruvate, 1% DMSO) of the same molecule?
**A.** 15 ± 1 mM

**Q.** What about the “Ki” value (TsRTA [3]) of the same molecule?
**A.** 20 ± 2 mM

**Q.** With “(R)-selective transaminase from Thermomyces stellatus (TsRTA), wild type (enzyme)” as the molecule, how does the percent dimer [4] read?
**A.** 10%

**Q.** And the percent tetramer [4]?
**A.** 90%

**Q.** What about the stoichiometry N [4] of the same molecule?
**A.** 4

**Q.** Which Km (C[C@@H](N)c1ccccc1 [5]) does the source give for AtRTA (Aspergillus terreus NIH2624) here?
**A.** 170 ± 10 µM

**Q.** What about the kcat (C[C@@H](N)c1ccccc1 [5]) of the same molecule?
**A.** 2.24 ± 0.04 s⁻¹

**Q.** And the kcat/Km (C[C@@H](N)c1ccccc1 [5])?
**A.** 13300 ± 500 M⁻¹ s⁻¹

**Q.** With “AtRTA (Aspergillus terreus NIH2624; G207C)” as the molecule, how does the Km (C[C@@H](N)c1ccccc1 [5]) read?
**A.** 300 ± 20 µM

**Q.** What about the kcat (C[C@@H](N)c1ccccc1 [5]) of the same molecule?
**A.** 1.96 ± 0.05 s⁻¹

**Q.** What about the kcat/Km (C[C@@H](N)c1ccccc1 [5]) of the same molecule?
**A.** 6400 ± 300 M⁻¹ s⁻¹

**Q.** What about the Km (CC(=O)C(=O)O [6]) of the same molecule?
**A.** 190 ± 10 µM

**Q.** And the kcat (CC(=O)C(=O)O [6])?
**A.** 1.71 ± 0.03 s⁻¹

**Q.** And the kcat/Km (CC(=O)C(=O)O [6])?
**A.** 9200 ± 500 M⁻¹ s⁻¹

**Q.** For AtRTA_G207C, which “percent tetramer (sample with a lower proportion of tetramer used for the thermostability assay)” value (Q0C8G1) is on record?
**A.** AtRTA_G207C: 55% tetramer

**Q.** For “AtRTA_G207C (from UniProt Q0C8G1 1-325) (enzyme)”, which percent dimer (after β-mercaptoethanol, dialysis and aeration) [7] is on record?
**A.** 5%

**Q.** And the percent dimer (immediately following purification) [7]?
**A.** 19%

**Q.** And the percent dimer and tetramer (after β-mercaptoethanol pre-treatment) [7]?
**A.** 94%

**Q.** And the percent dimer and tetramer (before β-mercaptoethanol pre-treatment) [7]?
**A.** 57%

**Q.** And the percent monomer (after β-mercaptoethanol, dialysis and aeration) [7]?
**A.** 6%

**Q.** What about the percent monomer (immediately following purification) [7] of the same molecule?
**A.** 52%

**Q.** And the percent tetramer (after β-mercaptoethanol, dialysis and aeration) [7]?
**A.** 89%

**Q.** What about the percent tetramer (immediately following purification) [7] of the same molecule?
**A.** 28%

**Q.** What about the stoichiometry N [7] of the same molecule?
**A.** 4

**Q.** And the increase in enzyme activity after β-mercaptoethanol pre-treatment [8]?
**A.** 65%

**Q.** With TsRTA (Microascus stellatus) as the molecule, how does the Km (C[C@@H](N)c1ccccc1 [9]) read?
**A.** 130 ± 10 µM

**Q.** What about the kcat (C[C@@H](N)c1ccccc1 [9]) of the same molecule?
**A.** 1.82 ± 0.03 s⁻¹

**Q.** And the kcat/Km (C[C@@H](N)c1ccccc1 [9])?
**A.** 13800 ± 600 M⁻¹ s⁻¹

**Q.** What about the Km (CC(=O)C(=O)O [10]) of the same molecule?
**A.** 570 ± 30 µM

**Q.** And the kcat (CC(=O)C(=O)O [10])?
**A.** 2.21 ± 0.04 s⁻¹

**Q.** And the kcat/Km (CC(=O)C(=O)O [10])?
**A.** 3900 ± 100 M⁻¹ s⁻¹

**Q.** Which Km (C[C@@H](N)c1ccccc1 [11]) does the source give for TsRTA (Microascus stellatus; G205C) here?
**A.** 120 ± 10 µM

**Q.** And the kcat (C[C@@H](N)c1ccccc1 [11])?
**A.** 1.35 ± 0.03 s⁻¹

**Q.** And the kcat/Km (C[C@@H](N)c1ccccc1 [11])?
**A.** 11000 ± 600 M⁻¹ s⁻¹

**Q.** And the Km (CC(=O)C(=O)O [12])?
**A.** 420 ± 10 µM

**Q.** And the kcat (CC(=O)C(=O)O [12])?
**A.** 1.33 ± 0.02 s⁻¹

**Q.** And the kcat/Km (CC(=O)C(=O)O [12])?
**A.** 3200 ± 100 M⁻¹ s⁻¹

**Q.** Which “percent tetramer (sample with a lower proportion of tetramer used for the thermostability assay)” value [13] does the source give for TsRTA_G205C here?
**A.** TsRTA_G205C: 75% tetramer

**Q.** With TsRTA_G205C (enzyme) as the molecule, how does the percent dimer (after β-mercaptoethanol, dialysis and aeration) [14] read?
**A.** 11%

**Q.** And the percent dimer (immediately following purification) [14]?
**A.** 42%

**Q.** What about the percent monomer (immediately following purification) [14] of the same molecule?
**A.** 2%

**Q.** What about the percent tetramer (after β-mercaptoethanol, dialysis and aeration) [14] of the same molecule?
**A.** 89%

**Q.** And the percent tetramer (immediately following purification) [14]?
**A.** 55%

**Q.** What about the stoichiometry N [14] of the same molecule?
**A.** 4

B1: (R)-selective transaminase from Aspergillus terreus (AtRTA), wild type (enzyme)
chain: MASMDKVFAGYAARQAILESTETTNPFAKGIAWVEGELVPLAEARIPLLDQGFMHSDLTYDVPSVWDGRFFRLDDHITRLEASCTKLRLRLPLPRDQVKQILVEMVAKSGIRDAFVELIVTRGLKGVRGTRPEDIVNNLYMFVQPYVWVMEPDMQRVGGSAVVARTVRRVPPGAIDPTVKNLQWGDLVRGMFEAADRGATYPFLTDGDAHLTEGSGFNIVLVKDGVLYTPDRGVLQGVTRKSVINAAEAFGIEVRVEFVPVELAYRCDEIFMCTTAGGIMPITTLDGMPVNGGQIGPITKKIWDGYWAMHYDAAYSFEIDYNERN
notes: the forward primer holds the ATG; Same vector as TsRTA, whose His-tag is C-terminal; also called omega transaminase from Aspergillus terreus; source: E. coli BL21 STAR (DE3), purified (IMAC)
**Q.** For B1, which “stoichiometry N” value [15] is on record?
**A.** 4
